The source of these data is US20200270325A1 (Merck Sharp & Dohme, published 2020).

Numbered stars: 1 amine (or outer) side, 2 acyl side, 3 side chain; on linkers, the order of the positions; unused ones are H or OH. Square brackets hold non-standard residues; d marks the D form. Side chains are listed from the residue outwards. Ends that are not written are not given here. * marks the point of attachment. Phe(4-CH2NH2) = NCc1ccc(C[C@H](N)C(=O)O)cc1; C18 diacid = O=C(O)CCCCCCCCCCCCCCCCC(=O)*; αMeW = C[C@](N)(Cc1c[nH]c2ccccc12)C(=O)O; C16 diacid = O=C(O)CCCCCCCCCCCCCCC(=O)*; γGlu = O=C(O)[C@H](CCC(=O)[*:2])N[*:1]; Met(O2) = CS(=O)(=O)CC[C@H](N)C(=O)O; αMeD = C[C@](N)(CC(=O)O)C(=O)O; AEEA = NCCOCCOCC(=O)O; Aib = CC(C)(N)C(=O)O

Test [1] concerns the target human GLP-1 receptor (GLP1R) (human, UniProt P43220 24-463). Put plainly: cell-based or functional assay.
For test [2], the target named is human Glucagon receptor (GCGR) (human, UniProt P47871 26-477). The experiment in a line: cell-based or functional assay.
Chain of human Glucagon receptor (GCGR) (P47871 26-477): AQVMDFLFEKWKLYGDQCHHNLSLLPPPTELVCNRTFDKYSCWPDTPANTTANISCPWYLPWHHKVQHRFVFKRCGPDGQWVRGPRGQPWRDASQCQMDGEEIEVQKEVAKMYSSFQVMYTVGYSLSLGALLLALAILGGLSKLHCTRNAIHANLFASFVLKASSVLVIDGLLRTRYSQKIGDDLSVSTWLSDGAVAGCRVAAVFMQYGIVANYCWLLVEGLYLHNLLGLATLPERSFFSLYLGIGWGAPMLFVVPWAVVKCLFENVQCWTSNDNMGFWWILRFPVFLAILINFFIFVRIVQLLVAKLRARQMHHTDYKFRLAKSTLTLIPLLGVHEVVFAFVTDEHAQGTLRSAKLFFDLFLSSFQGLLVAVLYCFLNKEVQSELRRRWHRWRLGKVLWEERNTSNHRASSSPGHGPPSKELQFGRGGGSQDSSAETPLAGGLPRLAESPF

B1: TP626 (peptide)
peptide: H[Aib]QGTFTSDYSKYLDARAAK([AEEA-γGlu-C18 diacid])DFVQWL[Met(O2)]DT-NH2
modifications: N-terminus assumed
SMILES: CC(C)C[C@H](NC(=O)[C@H](Cc1ccc(O)cc1)NC(=O)[C@H](CCCCN)NC(=O)[C@H](CO)NC(=O)[C@H](Cc1ccc(O)cc1)NC(=O)[C@H](CC(=O)O)NC(=O)[C@H](CO)NC(=O)[C@@H](NC(=O)[C@H](Cc1ccccc1)NC(=O)[C@@H](NC(=O)CNC(=O)[C@H](CCC(N)=O)NC(=O)C(C)(C)NC(=O)[C@@H](N)Cc1c[nH]cn1)[C@@H](C)O)[C@@H](C)O)C(=O)N[C@@H](CC(=O)O)C(=O)N[C@@H](C)C(=O)N[C@@H](CCCNC(=N)N)C(=O)N[C@@H](C)C(=O)N[C@@H](C)C(=O)N[C@@H](CCCCNC(=O)COCCOCCNC(=O)CC[C@H](NC(=O)CCCCCCCCCCCCCCCCC(=O)O)C(=O)O)C(=O)N[C@@H](CC(=O)O)C(=O)N[C@@H](Cc1ccccc1)C(=O)N[C@H](C(=O)N[C@@H](CCC(N)=O)C(=O)N[C@@H](Cc1c[nH]c2ccccc12)C(=O)N[C@@H](CC(C)C)C(=O)N[C@@H](CCS(C)(=O)=O)C(=O)N[C@@H](CC(=O)O)C(=O)N[C@H](C(N)=O)[C@@H](C)O)C(C)C
Regarding B1, in test [1], the “GLP1R EC50 human” value was 0.77 nM. Moreover, the “GCGR EC50 human” value in test [2] stood at 0.39 nM.

B2: TP624 (peptide)
peptide: H[Aib]QGTFTSD[Phe(4-CH2NH2)]([AEEA-AEEA-γGlu-C18 diacid])SKYLDARAAQDFVQWL[Met(O2)][αMeD]T-NH2
modifications: N-terminus assumed
SMILES: CC(C)C[C@H](NC(=O)[C@H](Cc1ccc(O)cc1)NC(=O)[C@H](CCCCN)NC(=O)[C@H](CO)NC(=O)[C@H](Cc1ccc(CNC(=O)COCCOCCNC(=O)COCCOCCNC(=O)CC[C@H](NC(=O)CCCCCCCCCCCCCCCCC(=O)O)C(=O)O)cc1)NC(=O)[C@H](CC(=O)O)NC(=O)[C@H](CO)NC(=O)[C@@H](NC(=O)[C@H](Cc1ccccc1)NC(=O)[C@@H](NC(=O)CNC(=O)[C@H](CCC(N)=O)NC(=O)C(C)(C)NC(=O)[C@@H](N)Cc1c[nH]cn1)[C@@H](C)O)[C@@H](C)O)C(=O)N[C@@H](CC(=O)O)C(=O)N[C@@H](C)C(=O)N[C@@H](CCCNC(=N)N)C(=O)N[C@@H](C)C(=O)N[C@@H](C)C(=O)N[C@@H](CCC(N)=O)C(=O)N[C@@H](CC(=O)O)C(=O)N[C@@H](Cc1ccccc1)C(=O)N[C@H](C(=O)N[C@@H](CCC(N)=O)C(=O)N[C@@H](Cc1c[nH]c2ccccc12)C(=O)N[C@@H](CC(C)C)C(=O)N[C@@H](CCS(C)(=O)=O)C(=O)N[C@@](C)(CC(=O)O)C(=O)N[C@H](C(N)=O)[C@@H](C)O)C(C)C
Turning to B2, the “GLP1R EC50 human” value in test [1] is 0.89 nM. Besides, in test [2], the “GCGR EC50 human” value worked out at 1 nM.

B3: TP629 (peptide)
peptide: H[Aib]QGTFTSDYSKYLDARAAK([AEEA-γGlu-C20‑OH])DFVQWL[Met(O2)][αMeD]T-NH2
As to B3, the “GLP1R EC50 human” value in test [1] is 2.23 nM. Also, in test [2], the “GCGR EC50 human” value amounted to 3.17 nM.

B4: TP627 (peptide)
peptide: H[Aib]QGTFTSDYSKYLDARAAK([AEEA-γGlu-C16 diacid])DFVQWL[Met(O2)][αMeD]T-NH2
modifications: N-terminus assumed
SMILES: CC(C)C[C@H](NC(=O)[C@H](Cc1ccc(O)cc1)NC(=O)[C@H](CCCCN)NC(=O)[C@H](CO)NC(=O)[C@H](Cc1ccc(O)cc1)NC(=O)[C@H](CC(=O)O)NC(=O)[C@H](CO)NC(=O)[C@@H](NC(=O)[C@H](Cc1ccccc1)NC(=O)[C@@H](NC(=O)CNC(=O)[C@H](CCC(N)=O)NC(=O)C(C)(C)NC(=O)[C@@H](N)Cc1c[nH]cn1)[C@@H](C)O)[C@@H](C)O)C(=O)N[C@@H](CC(=O)O)C(=O)N[C@@H](C)C(=O)N[C@@H](CCCNC(=N)N)C(=O)N[C@@H](C)C(=O)N[C@@H](C)C(=O)N[C@@H](CCCCNC(=O)COCCOCCNC(=O)CC[C@H](NC(=O)CCCCCCCCCCCCCCC(=O)O)C(=O)O)C(=O)N[C@@H](CC(=O)O)C(=O)N[C@@H](Cc1ccccc1)C(=O)N[C@H](C(=O)N[C@@H](CCC(N)=O)C(=O)N[C@@H](Cc1c[nH]c2ccccc12)C(=O)N[C@@H](CC(C)C)C(=O)N[C@@H](CCS(C)(=O)=O)C(=O)N[C@@](C)(CC(=O)O)C(=O)N[C@H](C(N)=O)[C@@H](C)O)C(C)C
Consider B4, for which the “GLP1R EC50 human” value in test [1] was determined as 0.25 nM. Also, the “GCGR EC50 human” value in test [2] was determined as 0.14 nM.

B5: TP625 (peptide)
peptide: H[Aib]QGTFTSD[Phe(4-CH2NH2)]([AEEA-AEEA-γGlu-C18 diacid])SKYLDARAAQDFVQ[αMeW]L[Met(O2)]DT-NH2
modifications: N-terminus assumed
SMILES: CC(C)C[C@H](NC(=O)[C@H](Cc1ccc(O)cc1)NC(=O)[C@H](CCCCN)NC(=O)[C@H](CO)NC(=O)[C@H](Cc1ccc(CNC(=O)COCCOCCNC(=O)COCCOCCNC(=O)CC[C@H](NC(=O)CCCCCCCCCCCCCCCCC(=O)O)C(=O)O)cc1)NC(=O)[C@H](CC(=O)O)NC(=O)[C@H](CO)NC(=O)[C@@H](NC(=O)[C@H](Cc1ccccc1)NC(=O)[C@@H](NC(=O)CNC(=O)[C@H](CCC(N)=O)NC(=O)C(C)(C)NC(=O)[C@@H](N)Cc1c[nH]cn1)[C@@H](C)O)[C@@H](C)O)C(=O)N[C@@H](CC(=O)O)C(=O)N[C@@H](C)C(=O)N[C@@H](CCCNC(=N)N)C(=O)N[C@@H](C)C(=O)N[C@@H](C)C(=O)N[C@@H](CCC(N)=O)C(=O)N[C@@H](CC(=O)O)C(=O)N[C@@H](Cc1ccccc1)C(=O)N[C@H](C(=O)N[C@@H](CCC(N)=O)C(=O)N[C@@](C)(Cc1c[nH]c2ccccc12)C(=O)N[C@@H](CC(C)C)C(=O)N[C@@H](CCS(C)(=O)=O)C(=O)N[C@@H](CC(=O)O)C(=O)N[C@H](C(N)=O)[C@@H](C)O)C(C)C
For the molecule B5, the “GLP1R EC50 human” value in test [1] is 0.39 nM. Further, in test [2], the “GCGR EC50 human” value stood at 1.3 nM.

B6: TP623 (peptide)
peptide: H[Aib]QGTFTSD[Phe(4-CH2NH2)]([AEEA-γGlu-C18 diacid])SKYLDARAAQDFVQWL[Met(O2)]DT-NH2
modifications: N-terminus assumed
SMILES: CC(C)C[C@H](NC(=O)[C@H](Cc1ccc(O)cc1)NC(=O)[C@H](CCCCN)NC(=O)[C@H](CO)NC(=O)[C@H](Cc1ccc(CNC(=O)COCCOCCNC(=O)CC[C@H](NC(=O)CCCCCCCCCCCCCCCCC(=O)O)C(=O)O)cc1)NC(=O)[C@H](CC(=O)O)NC(=O)[C@H](CO)NC(=O)[C@@H](NC(=O)[C@H](Cc1ccccc1)NC(=O)[C@@H](NC(=O)CNC(=O)[C@H](CCC(N)=O)NC(=O)C(C)(C)NC(=O)[C@@H](N)Cc1c[nH]cn1)[C@@H](C)O)[C@@H](C)O)C(=O)N[C@@H](CC(=O)O)C(=O)N[C@@H](C)C(=O)N[C@@H](CCCNC(=N)N)C(=O)N[C@@H](C)C(=O)N[C@@H](C)C(=O)N[C@@H](CCC(N)=O)C(=O)N[C@@H](CC(=O)O)C(=O)N[C@@H](Cc1ccccc1)C(=O)N[C@H](C(=O)N[C@@H](CCC(N)=O)C(=O)N[C@@H](Cc1c[nH]c2ccccc12)C(=O)N[C@@H](CC(C)C)C(=O)N[C@@H](CCS(C)(=O)=O)C(=O)N[C@@H](CC(=O)O)C(=O)N[C@H](C(N)=O)[C@@H](C)O)C(C)C
For the molecule B6, the “GLP1R EC50 human” value in test [1] amounted to 0.17 nM. Also, the “GCGR EC50 human” value in test [2] amounted to 0.09 nM.
